B1: ADC-20 (antibody, human IgG1, kappa, V domains shown)
VH: QVQLVQSGGGLVQPGRSLRLSCAASGFTFDDYAMHWVRQAPGKGLEWVSGISWNSGSIGYADSVKGRFTISRDNAKNSLYLQMNSLRAEDTALYYCAKEGLPGLDYWGQGTLVTVSS
VL: DIQMTQSPSSLSASIGDRATITCRASQHVGTYLNWYQQKPGKTPKLLISGAANLQSGVPSRFSGSGSGTDFTLTISSLQPEDFATYYCQQSYNTPPFSFGQGTKVEIKR
modifications: Asn at position 297 (Eu numbering) carries the remodeled N297 glycan chain from OLS-4, conjugated to the PBD drug linker LD-11; average drug loading y=1.98
B2: ADC-22 (antibody, human IgG1, kappa, V domains shown)
VH: EVQLVQSGAEVKKPGASVKVSCKASGYTFTSYWMHWVRQAPGQRLEWMGMIHPNSGSTNYNEKFKGRVTITRDTSASTAYMELSSLRSEDTAVYYCARLKTGNSFDYWGQGTTVTVSS
VL: DIVLTQSPDSLAVSLGERATINCKSSQSLLNSGNQKNYLTWYQQKPGQPPKLLIYWASTRESGVPDRFSGSGSGTDFTLTISSLQAEDVAVYYCQNAYTYPFTFGQGTKLEIKR
modifications: Asn at position 297 (Eu numbering) carries the remodeled N297 glycan chain from OLS-4, conjugated to the PBD drug linker LD-11; average drug loading y=1.96

Legend:
HER3 = HER3 (UniProt P21860 20-1342, limits assumed); test: cell-based or functional assay
human Claudin18.2 = human Claudin18.2 (human); test: cell-based or functional assay

| Binder | EC50 (nM), killing effect (CTG) on FaDu++ (HER3) [nM] | EC50 (nM), killing effect (CTG) on MCF7++++ (HER3) [nM] | EC50 (nM), killing effect (CTG) on SW620+++ (HER3) [nM] | EC50 (nM), in vitro killing (CTG cell viability) of cells highly expressing NUGC4-claudin18.2 (human Claudin18.2) [nM] | EC50 (nM), in vitro killing (CTG cell viability) of cells lowly expressing NUGC4-claudin18.2 (human Claudin18.2) [nM] | EC50 (nM), in vitro killing (CTG cell viability) of cells moderately expressing NUGC4-claudin18.2 (human Claudin18.2) [nM] |
| --- | --- | --- | --- | --- | --- | --- |
| B1 | 39.9 | 114 | 29.3 | – | – | – |
| B2 | – | – | – | 2.1 | 11.7 | 9.8 |

Source: patent US20250000989A1 (JIANGSU HENGRUI PHARMACEUTICALS, published 2025)
